Changes are numbered by the printed parent chain. Numbers in names are those of the source. Values belong to the binder of their own block, whether it stands above or below them.
Biological target: HscA (UniProt P0A6Z1)
Sequence (P0A6Z1 whole entry): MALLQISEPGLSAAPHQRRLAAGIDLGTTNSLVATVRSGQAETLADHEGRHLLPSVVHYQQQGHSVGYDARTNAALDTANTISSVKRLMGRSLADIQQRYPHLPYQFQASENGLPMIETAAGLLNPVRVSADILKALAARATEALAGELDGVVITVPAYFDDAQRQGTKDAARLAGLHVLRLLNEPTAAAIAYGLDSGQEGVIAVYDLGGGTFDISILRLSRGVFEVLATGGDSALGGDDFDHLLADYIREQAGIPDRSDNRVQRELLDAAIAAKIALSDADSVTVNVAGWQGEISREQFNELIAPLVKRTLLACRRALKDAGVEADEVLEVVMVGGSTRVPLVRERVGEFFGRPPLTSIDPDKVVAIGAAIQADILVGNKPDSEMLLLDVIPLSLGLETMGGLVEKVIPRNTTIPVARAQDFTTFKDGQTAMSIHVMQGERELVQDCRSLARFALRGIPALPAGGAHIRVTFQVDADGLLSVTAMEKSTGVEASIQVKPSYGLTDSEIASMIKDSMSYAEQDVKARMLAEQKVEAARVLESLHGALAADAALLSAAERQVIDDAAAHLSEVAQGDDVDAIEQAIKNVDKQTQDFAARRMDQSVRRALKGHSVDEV

HscA ATPase activity, 23 °C, in the absence of IscU: maximal stimulation: 4.3 fold
B1: HscB(E97A,E100A,E104A) (natural protein)
chain: MDYFTLFGLPARYQLDTQALSLRFQDLQRQYHPDKFASGSQAEQLAAVQQSATINQAWQTLRHPLMRAEYLLSLHGFDLASEQHTVRDTAFLMEQLALRAELDAIEQAKDEARLESFIKRVKKMFDTRHQLMVEQLDNETWDAAADTVRKLRFLDKLRSSAEQLEEKLLDF

HscA ATPase activity, 23 °C, in the absence of IscU: maximal stimulation: 3.8 fold
B2: HscB(L92A,M93A,F153A) (natural protein)
chain: B1 chain with L92A, M93A, A97E, A100E, A104E, F153A
